Measured values reported in publication PMC11551315 (Proceedings of the National Academy of Sciences of the …, 2024).
Like-named read-outs stand apart in the source and are kept apart here.

Legend:
Cdc15-eGFP [1] = target: T1, Cdc15-eGFP (S. cerevisiae, UniProt P27636 1-974); assay: AlphaScreen or HTRF
T1 sequence (looked up): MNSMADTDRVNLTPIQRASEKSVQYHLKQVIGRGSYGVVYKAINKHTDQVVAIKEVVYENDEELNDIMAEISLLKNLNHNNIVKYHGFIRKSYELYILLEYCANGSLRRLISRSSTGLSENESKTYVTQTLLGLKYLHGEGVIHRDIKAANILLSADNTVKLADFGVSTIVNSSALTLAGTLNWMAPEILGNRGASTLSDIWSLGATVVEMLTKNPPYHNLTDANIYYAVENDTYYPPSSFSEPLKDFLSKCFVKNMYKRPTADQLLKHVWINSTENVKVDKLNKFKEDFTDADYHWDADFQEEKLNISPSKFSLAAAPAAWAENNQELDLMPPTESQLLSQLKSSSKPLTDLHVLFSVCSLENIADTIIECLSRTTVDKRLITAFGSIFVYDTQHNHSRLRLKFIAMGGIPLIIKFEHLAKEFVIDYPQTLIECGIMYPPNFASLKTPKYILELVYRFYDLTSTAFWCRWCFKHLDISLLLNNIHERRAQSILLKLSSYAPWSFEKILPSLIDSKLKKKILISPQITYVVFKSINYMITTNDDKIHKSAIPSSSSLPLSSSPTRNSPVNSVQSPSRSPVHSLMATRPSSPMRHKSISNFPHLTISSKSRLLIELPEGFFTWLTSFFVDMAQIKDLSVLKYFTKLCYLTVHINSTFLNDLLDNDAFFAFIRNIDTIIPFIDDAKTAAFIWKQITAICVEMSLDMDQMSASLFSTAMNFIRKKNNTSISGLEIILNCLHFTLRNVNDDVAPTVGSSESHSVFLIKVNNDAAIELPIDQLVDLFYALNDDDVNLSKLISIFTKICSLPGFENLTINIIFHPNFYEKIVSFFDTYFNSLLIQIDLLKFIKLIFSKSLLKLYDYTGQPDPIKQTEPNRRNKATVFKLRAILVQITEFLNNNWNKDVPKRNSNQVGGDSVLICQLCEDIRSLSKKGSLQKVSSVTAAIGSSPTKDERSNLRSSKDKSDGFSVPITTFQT

Cdc15-eGFP [2] = target: T1, Cdc15-eGFP; assay: AlphaScreen or HTRF; remark: listed apart in the source

Kd (Cdc15-eGFP [1]): 3.9 ± 0.8 nM | Kd (Cdc15-eGFP [2]): 16 ± 3 nM
B1: Recombinant Tem1 (unlabeled) (natural protein, S. cerevisiae, UniProt P38987 1-245, looked up)
chain: MATPSTGANNSIPAVRNQVEVQVGLVGDAQVGKTSLMVKYVQNIYDKEYTQTLGVNFLKRKVSIRSTDIIFSIMDLGGQREFINMLPIATVGSSVIIFLFDLTRPETLSSIKEWYRQAYGLNDSAIPILVGTKYDLLIDLDPEYQEQISRTSMKYAQVMNAPLIFCSTAKSINIQKIFKIALAKIFNLTLTIPEINEIGDPLLIYKHLGGQQHRHHNKSQDRKSHNIRKPSSSPSSKAPSPGVNT
